Experimental data as given in US20030175703.
Like-named read-outs stand apart in the source and are kept apart here.

Columns and labels:
[1] = molecular target: coagulation factor IXa (FIXa) (UniProt P00740+P00740); details: FIG. 20 legend gives >>5 uM
[2] = system: E2F
[3] = system: E2F; remark: listed apart in the source
[4] = molecular target: coagulation factor Xa (FXa) (UniProt P00742+P00742)
coagulation factor Xa (FXa), sequence (P00742 41-179, chain 1 of 2): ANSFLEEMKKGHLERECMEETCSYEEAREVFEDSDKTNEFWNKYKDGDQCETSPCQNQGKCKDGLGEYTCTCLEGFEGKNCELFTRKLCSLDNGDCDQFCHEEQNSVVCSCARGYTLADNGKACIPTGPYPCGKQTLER
coagulation factor Xa (FXa), sequence (P00742 235-488, chain 2 of 2): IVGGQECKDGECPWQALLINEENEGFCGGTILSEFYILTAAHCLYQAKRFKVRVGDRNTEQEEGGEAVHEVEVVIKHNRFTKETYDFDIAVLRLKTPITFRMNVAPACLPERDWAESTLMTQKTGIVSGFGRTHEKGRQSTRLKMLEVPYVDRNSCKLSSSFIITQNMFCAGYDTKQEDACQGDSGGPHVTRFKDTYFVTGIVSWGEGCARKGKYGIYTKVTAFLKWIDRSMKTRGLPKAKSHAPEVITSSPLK

coagulation factor IXa (FIXa), sequence (P00740 47-191, chain 1 of 2): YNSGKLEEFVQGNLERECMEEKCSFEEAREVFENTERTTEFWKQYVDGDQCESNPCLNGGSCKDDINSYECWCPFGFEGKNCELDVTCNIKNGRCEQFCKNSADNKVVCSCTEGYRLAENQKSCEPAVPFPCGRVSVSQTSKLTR
coagulation factor IXa (FIXa), sequence (P00740 227-461, chain 2 of 2): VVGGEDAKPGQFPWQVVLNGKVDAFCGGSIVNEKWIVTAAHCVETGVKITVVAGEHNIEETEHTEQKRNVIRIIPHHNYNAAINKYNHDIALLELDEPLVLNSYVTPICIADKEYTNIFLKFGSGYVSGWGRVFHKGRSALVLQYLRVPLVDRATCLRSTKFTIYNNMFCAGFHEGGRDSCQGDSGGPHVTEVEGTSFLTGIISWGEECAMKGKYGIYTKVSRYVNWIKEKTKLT

Substance: 9.3tM
- Kd [1]: > 10000 nM

Substance: AAUGGAAUCACUGAAGGCCCUCCGUAGCACCUAACACAGU [E2F aptamer 221]
- Kd ([2]; random region only): 1.5 nM

Substance: ACCUCGACCCUUCACCUGACUCUCCCAGAAGUUCUGUUUC [E2F aptamer 219]
- Kd ([2]; random region only): 2 nM

Substance: AUCCCCGCCGUAAGCCGUCCUGAUGGACACCACACGCCGC [E2F aptamer 226]
- Kd ([2]; random region only, table and listing differ near 5' end): 2 nM

Substance: CAAGCGCUGAAACCAAUGCACCCCACCCCACACUGGUGUAC [E2F aptamer 204]
- Kd ([2]; random region only): 1.25 nM

Substance: CAAGCGUAUACCCUACCCACACUGAGCUACAUUGCGCUGA [E2F aptamer 213]
- Kd ([2]; random region only): 8 nM

Substance: CACUGAACGAAUGGCAACCGCCAAACCCUACCCACACUGG [E2F aptamer 212]
- Kd ([2]; listed as assignment inferred): 0.2 nM

Substance: CAGAUUACCCUACCCACACUGCGUGCGGACAACCAUUGGC [E2F aptamer 201]
- Kd ([2]; random region only): 0.4 nM

Substance: CCACCCGAAGCAAAUCAAGCCCGACGGCGCUCGGACCAAC [E2F aptamer 217]
- Kd ([2]; random region only): 15 nM

Substance: CGAACGAACUGUGGACCCUACCCACACUGGGCCAAGCGAU [E2F aptamer 207]
- Kd ([2]; random region only): 0.4 nM

Substance: CGUCACUCCGUCCCAGCCGACGAAGUCCGUAAUUCCUCCA [E2F aptamer 216]
- Kd ([2]; random region only): 45 nM

Substance: GCACUAAACUUCGAUUACCCCCCACCCACACUGGCUGCAC [E2F aptamer 200]
- Kd ([2]; random region only): 4 nM

Substance: GCAUCCUGCCAGCGGCGACGGACCUUCGCCCACAGGCCUC [E2F aptamer 222]
- Kd ([2]; random region only): 2 nM

Substance: GCCGAGAGUGAGUGACCACAACCCCGCCCACACUGGAAUA [E2F aptamer 214]
- Kd ([2]; random region only): 1.5 nM

Substance: GCUGCCGCGCCUGGACCCCACCCACAUAUGGGCCACACAC [E2F aptamer 189]
- Kd ([2]; random region only, listing prints T for U): 1.5 nM

Substance: GGGAGAGAGGAAGAGGGAGGGAAAGCACACGAAGCCCCAGCAAAACCCCACAGGCAAACCCAGAGGCGAAGACGGACCCCCC [E2F 10-3 / 10-7 / 10-11 / 10-12]
- Kd ([3]; printed sequence appears to lack U residues (compare SEQ 223)): 1 nM

Substance: GGGAGAGAGGAAGAGGGAGGGAAGGAACACGAAGGCCCCCGAGCACCAACACAGCAAACCCAGAGGCGAAGACGGACCCCCC [E2F 10-1 / 10-8]
- Kd ([3]; printed sequence appears to lack U residues (compare SEQ 221)): 1.5 nM

Substance: GGGAGAGAGGAAGAGGGAGGGACCCCGCCGAAGCCGCCGAGGACACCACACCCGCCAAACCCAGAGGCGAAGACGGACCCCCC [E2F 10-6]
- Kd ([3]; printed sequence appears to lack U residues (compare SEQ 226)): 2 nM

Substance: GGGAGAGAGGAAGAGGGAGGGAGAAACACAGAAGCCCGCGCGACACCCCACGCAAACCCAGAGGCGAAGACGGACCCCCC [E2F 10-4]
- Kd ([3]; printed sequence appears to lack U residues (compare SEQ 224)): 5 nM

Substance: GGGAGAGAGGAAGAGGGAGGGCAAACCACAGACCCAACGCAGGAGCACCCACCCACACGGGACAGCAAACCCAGAGGCGAAGACGGACCCCCC [E2F 10-5]
- Kd ([3]; printed sequence appears to lack U residues (compare SEQ 225)): 2.5 nM

Substance: GGGAGAGAGGAAGAGGGAGGGGCACCGCCAGCGGCGACGGACCCGCCCACAGGCCCCAAACCCAGAGGCGAAGACGGACCCCCC [E2F 10-2]
- Kd ([3]; printed sequence appears to lack U residues (compare SEQ 222)): 3 nM

Substance: GGGAGAGAGGAAGAGGGAUGGGAAAAUACGCCANNCGAGAUUAUACUUGGCCCCGCUAAUACCAUAACCCAGAGGUCGAU [D6-6]
- Kd [4]: 3.1 nM

Substance: GGGAGAGAGGAAGAGGGAUGGGAGUCCGACUGGAGAACANGUACUCUAUAAGCACUUNCAUNCANCAUAACCCAGAGGUCGAU [E10-7]
- Kd [4]: 69.5 nM

Substance: GGGAGAGAGGAAGAGGGAUGGGCCAUUGCUNCCCUGAACANGGGCNCCACNCCGCCUNCACAGUCAUAACCCAGAGGUCGAU [E10-1]
- Kd [4]: 51.7 nM

Substance: GGGAGAGAGGAAGAGGGAUGGGNGAUUAGCCCNAGCGAGAUANUACUUGGCCCCGCUACNUCCAUAACCCAGAGGUCGAU [D7-8]
- Kd [4]: 14.5 nM

Substance: UAUGAAAUCACAGAAGCCCGCGUUCGACACCUCCACUGUU [E2F aptamer 224]
- Kd ([2]; random region only): 3 nM

Substance: UUAUAUAGCACACUGAAGCCCUCAGCAAAACCUCCACAGG [E2F aptamer 223]
- Kd ([2]; random region only): 1.5 nM

Substance: UUUCCUAUGGCGAUAACUUCAGCCACGCCGGCGCCCCGUG [E2F aptamer 215]
- Kd ([2]; random region only): 30 nM
